# From PMC3140978, “The G1613A Mutation in the HBV Genome Affects HBeAg Expression and Viral Replication through Altered Core Promoter Activity”
# T1: RFX1 (Homo sapiens, UniProt P22670 1-979)
# T1 sequence: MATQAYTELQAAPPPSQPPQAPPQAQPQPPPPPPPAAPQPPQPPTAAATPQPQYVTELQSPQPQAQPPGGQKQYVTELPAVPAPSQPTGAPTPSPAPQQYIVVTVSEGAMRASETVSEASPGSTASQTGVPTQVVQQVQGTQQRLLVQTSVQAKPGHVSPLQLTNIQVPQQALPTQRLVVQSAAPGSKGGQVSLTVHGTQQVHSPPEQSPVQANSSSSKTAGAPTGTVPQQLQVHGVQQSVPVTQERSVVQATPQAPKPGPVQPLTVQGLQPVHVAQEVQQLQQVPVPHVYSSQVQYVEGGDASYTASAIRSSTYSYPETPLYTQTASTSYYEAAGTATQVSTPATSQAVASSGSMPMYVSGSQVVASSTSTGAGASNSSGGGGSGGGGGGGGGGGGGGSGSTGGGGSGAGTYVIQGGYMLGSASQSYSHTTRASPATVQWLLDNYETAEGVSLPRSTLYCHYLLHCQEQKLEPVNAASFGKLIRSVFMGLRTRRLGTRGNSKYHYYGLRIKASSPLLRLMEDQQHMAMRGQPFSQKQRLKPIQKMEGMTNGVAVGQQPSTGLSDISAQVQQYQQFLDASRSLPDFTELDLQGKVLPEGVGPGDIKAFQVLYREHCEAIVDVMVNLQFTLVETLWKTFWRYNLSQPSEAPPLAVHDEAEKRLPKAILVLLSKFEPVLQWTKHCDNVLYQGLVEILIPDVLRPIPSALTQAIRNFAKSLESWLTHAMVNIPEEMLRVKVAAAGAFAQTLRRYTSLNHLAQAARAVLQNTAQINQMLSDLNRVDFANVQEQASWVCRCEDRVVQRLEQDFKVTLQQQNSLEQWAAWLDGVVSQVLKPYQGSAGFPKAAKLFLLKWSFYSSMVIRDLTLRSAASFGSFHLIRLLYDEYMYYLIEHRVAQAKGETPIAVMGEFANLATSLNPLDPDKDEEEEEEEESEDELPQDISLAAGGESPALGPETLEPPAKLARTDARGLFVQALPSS
# B1: NS non-specific oligo (dsDNA)
# DNA 1: GGAATTACGTGGCCACTCGAGGGAATTACG
# DNA 2: CGTAATTCCCTCGAGTGGCCACGTAATTCC
# B2: A1613 mutant NRE probe (dsDNA)
# DNA 1: GCACGTCGCATGGAAACCACCGTGAACGCC
# DNA 2: GGCGTTCACGGTGGTTTCCATGCGACGTGC
# What was measured:
# RFX1 [1] = target: T1, RFX1; test: EMSA; EMSA: 1x binding buffer from 10x (50 mM NaCl, 10 mM Tris-HCl pH 7.5, 2.5 mM MgCl2, 4% glycerol, 0.5 mM DTT), 0.05% NP40, poly(dI-dC), 20 ul, room temperature 1; conditions: protein: ivt; tags: C-terminal myc in the source clone pCMV-RFX1; chain copies: 2; label: 32P end label (T4 kinase); blunt
# RFX1 [2] = target: T1, RFX1; test: EMSA; shifted to C2 position; favored over wild-type; EMSA: 1x binding buffer from 10x (50 mM NaCl, 10 mM Tris-HCl pH 7.5, 2.5 mM MgCl2, 4% glycerol, 0.5 mM DTT), 0.05% NP40, poly(dI-dC), 20 ul, room temperature 1; conditions: protein: ivt; tags: C-terminal myc in the source clone pCMV-RFX1; chain copies: 2; label: 32P end label (T4 kinase); blunt
Binder,binding result (RFX1 [1]),binding result (RFX1 [2])
B1,no binding,
B2,,binds
